# Measured values as given in patent US20160040149A1, “Compositions Having Dicamba Decarboxylase Activity and Methods of Use” (priority 2013, published 2016).
# Assay: DNA shuffling libraries: 14CO2 capturing assay in 384-well format, fold activity of backbone (Megatable 2)
# Details: relative to backbone SEQ ID NO: 133 (DDEC0201)
row,Molecule,Fold Activity [fold]
1,"367 (protein, Dicamba decarboxylase variant) MAQGKVALEEHFAIPETLQDSAGFVPGDYWKELQHRLLDIQDTRLKLMDAHGIETMILSLAAPAVQAIPDRRKAIEIARRANDFLAEECAKRPDRFLAFAALPLQDPDAATEELQRTVNDLGFVGALVNGFSVEGDGQTPLYYDLPQYRPFWGEVEKLDVPFYLHPRNPLPQDSRIYDGHPWLLGPTWAFAQETAVHALRLMASGLFDEHPRLNIILGHMGEGLPYMMYRIDHRIAWVKLPPRYPAKRRFMDYFNENFHITTSGNFRTQTLIDAILEIGADRILFSTDWPFENIDHAADWFNATSIAEADRVKIGRTNARRLFKLDGD",0.9
2,"371 (protein, Dicamba decarboxylase variant) MAQGKVALEEHFAIPETLQDSAGFVPGDYWKELQHRLLDIQDTRLRLMDAHGIETMILSLAAPAVQAIPDRRKAIEIARRANDFLAEECAKRPDRFLAFAALPLQDPDAATEELQRTVNDLGFVGALVNGFSQEGDGQTPLYYDLPQYRPFWGEVEKLDVPFYLHPRNPLPQDSRIYDGHPWLLGPTWAFAQETAVHALRLMASGLFDEHPRLNIILGHLGEGLPYMMYRIDHRIAWVKLPPRYPAKRRFMDYFLENFHITTSGNFRTQTLIDAILEIGADRILFSTDWPFENIDHAADWFNATSIAEADRLKIGRTNARRLFKLDGR",0.9
3,"368 (protein, Dicamba decarboxylase variant) MAQGKVALEEHFAIPETLQDSAGFVPGDYWKELQHRLLDIQDTRLKLMDAHGIETMILSLAAPGVQAIPDRRKAIEIARRANDMLAEECAKRPDRFLAFAALPLQDVDAATEELQRCVNDLGFVGALVNGFSVEGDGQTPLYYDLPQYRPFWGEVEKLDVPFYLHPRNPLPQDSRIYDGHPWLLGPTWAFAQETAVHALRLMASGLFDEHPRLNIILGHMGEGLPYMMYRIDHRIAWVHEPPRYPAKRRFMDYFLENFHITTSGNFRTQTLIDAILEIGADRILFSTDWPFENIDHAADWFNATSIAEADRLKIGRTNARRLFKLDGD",0.9
4,"373 (protein, Dicamba decarboxylase variant) MAQGKVALEEHFAIPETLQDSAGFVPGDYWKELQHRLLDIQDTRLKLMDAHGIETMILSLAAPAVQAIPDRRKAIEIARRANDFLAEECAKRPDRFLAFAALPLQDPDAATEELQRCVNDLGFVGALVNGFSVEGDGQTPLYYDLPQYRPFWGEVEKLDVPFYLHPRNPLPQDSRIYDGHPWLLGPTWAFAQETAVHALRLMASGLFDEHPRLNIILGHMGEGLPYMMYRIDHRIAWVKLPPRYPAKRRFMDYFNENFHITTSGNFRTQTLIDAILEIGADRILFSTDWPFENIDHAADWFNATSIAEADRLKIGRTNARRLFKLDGD",1.2
5,"374 (protein, Dicamba decarboxylase variant) MAQGKVALEEHFAIPETLQDSAGFVPGDYWKELQHRLLDIQDTRLKLMDAHGIETMILSLAAPAVQAIPDRRKAIEIARRANDFLAEECAKRPDRFLAFAALPLQDPDAATEELQRCVNDLGFVGALVNGFSVEGDGQTPLYYDLPQYRPFWGEVEKLDVPFYLHPRNPLPQDSRIYDGHPWLLGPTWAFAQETAVHALRLMASGLFDEHPRLNIILGHMGEGLPYMMYRIDHRIAWVHEPPRYPAKRRFMDYFNENFHITTSGNFRTQTLIDAILEIGADRILFSTDWPFENIDHATDWFNATSIAEADRVKIGRTNARRLFKLDGD",1.3
6,"370 (protein, Dicamba decarboxylase variant) MAQGKVALEEHFAIPETLQDSAGFVPGDYWKELQHRLLDIQDTRLKLMDAHGIETMILSLAAPAVQAIPDRRKAIEIARRANDFLAEECAKRPDRFLAFAALPLQDVDAASEELQRCVNDLGFVGALVNGFSVEGDGQTPLYYDLPQYRPFWGEVEKLDVPFYLHPRNPLPQDSRIYDGHPWLLGPTWAFAQETAVHALRLMASGLFDEHPRLNIILGHMGEGLPYMMYRIDHRIAWVKLPPRYPAKRRFMDYFNENFHITTSGNFRTQTLIDAILEIGADRILFSTDWPFENIDHAADWFNATSIAEADRLKIGRTNARRLFKLDGD",0.9
7,"375 (protein, Dicamba decarboxylase variant) MAQGKVALEEHFAIPETLQDSAGFAPGDYWKELQHRLLDIQDTRLKLMDAHGIETMILSLAAPAVQAIPDRRKAIEIARRANDFLAEECAKRPDRFLAFAALPLQDPDAATEELQRCVNDLGFVGALVNGFSQEGDGQTPLYYDLPQYRPFWGEVEKLDVPFYLHPRNPLPQDSRIYDGHPWLLGPTWAFAQETAVHALRLMASGLFDEHPRLNIILGHLGEGLPYMMYRIDHRIAWVHEPPRYPAKRRFMDYFNENFHITTSGNFRTQTLIDAILEIGADRILFSTDWPFENIDHAADWFNATSIAEADRVKIGRTNARRLFKLDGD",0.9
8,"369 (protein, Dicamba decarboxylase variant) MAQGKVALEEHFAIPETLQDSAGFVPGDYWKELQHRLLDIQDTRLRLMDAHGIETMILSLAAPAVQAIPDRRKAIEIARRANDFLAEECAKRPDRFLAFAALPLQDPDAATEELQRCVNDLGFVGALVNGFSQEGDGQTPLYYDLPQYRPFWGEVEKLDVPFYLHPRNPLPQDSRIYDGHPWLLGPTWAFAQETAVHALRLMASGLFDEHPRLNIILGHMGEGLPYMMYRIDHRIAWVHEPPRYPAKRRFMDYFNENFHITTSGNFRTQTLIDAILEIGADRILFSTDWPFENIDHAADWFNATSIAEADRVKIGRTNARRLFKLDGA",1.1
9,"372 (protein, Dicamba decarboxylase variant) MAQGKVALEEHFAIPETLQDSAGFVPGDYWKELQHRLLDIQDTRLKLMDAHGIETMILSLAAPAVQAIPDRRKAIEIARRANDMLAEECAKRPDRFLAFAALPLQDPDAATEELQRCVNDLGFVGALVNGFSVEGDGQTPLYYDLPQYRPFWGEVEKLDVPFYLHPRNPLPQDSRIYDGHPWLLGPTWAFAQETAVHALRLMASGLFDEHPRLNIILGHLGEGLPYMMYRIDHRIAWVHEPPRYPAKRRFMDYFNENFHITTSGNFRTQTLIDAILEIGADRILFSTDWPFENIDHAADWFNATSIAEADRVKIGRTNARRLFKLDLD",1.1
10,"377 (protein, Dicamba decarboxylase variant) MAQGKVALEEHFAIPETLQDSAGFVPGDYWKELQHRLLDIQDTRLKLMDAHGIETMILSLAAPAVQAIPDRRKAIEIARRANDFLAEECAKRPDRFLAFAALPMQDPDAATEELQRCVNDLGFVGALVNGFSQEGDGQTPLYYDLPQYRPFWGEVEKLDVPFYLHPRNPLPQDSRIYDGHPWLLGPTWAFAQETAVHALRLMASGLFDEHPRLNIILGHMGEGLPYMMYRIDHRIAWVQEPPRYPAKRRFMDYFNENFHITTSGNFRTQTLIDAILEIGADRILFSTDWPFENIDHAADWFNATSIAEADRVKIGRTNARRLFKLDVD",1.0
11,"376 (protein, Dicamba decarboxylase variant) MAQGKVALEEHFAIPETLQDSAGFVPGDYWKELQHRLLDIQDTRLKLMDAHGIETMILSLAAPAVQAIPDRRKAIEIARRANDFLAEECAKRPDRFLAFAALPLQDPDAATEELQRTVNDLGFVGALVNGFSQEGDGQTPLYYDLPQYRPFWGEVEKLDVPFYLHPRNPLPQDSRIYDGHPWLLGPTWAFAQETAVHALRLMASGLFDEHPRLNIILGHMGEGLPYMMYRIDHRIAWVKLPPRYPAKRRFMDYFNENFHITTSGNFRTQTLIDAILEIGADRILFSTDWPFENIDHATDWFNATSIAEADRVKIGRTNARRLFKLDGA",1.3

# Same assay, conditions: relative to backbone SEQ ID NO: 380 (DDEC0301)
row,Molecule,Fold Activity [fold]
1,"469 (protein, Dicamba decarboxylase variant) MAQGKVALEEHFAIPETLQDAAGFVPGDYWKELQHRLLDIQDTRLKLMDKHEIGTMILSLAAPAVQAIPDRRKAIEIARRANDFLAEEVAKRPDRFLAFAALPLQDPDAATEELQRCVNDLGFVGAMVNGFSQEGDGQTPLYYDLPQYRPFWGEVEKLDVPFYLHPRNPLPQDSRIYDGHPWLLGPTWAFAQETAVHALRLMASGLFDEHPRLNIILGHMGEGLPYMMYRIDHRIAWVKAPPDYPAKRRFMDYFNENFHITTSGNFRTQTLIDAILEIGADRILFSTDWPFENIDHAADWFNATSIAEADRVKIGRTNARRLFKLDGR",1.8
2,"471 (protein, Dicamba decarboxylase variant) MAQGKVALEEHFAIPETLQDAADFVPGDYWKELQHRLLDIQDTRLKLMDKHEIETMILSLAAPAVQAIPDRRKAIEIARRANDFLAEEVAKRPDRFLAFAALPLQDPDAATEELQRCVRDLGFVGAMVNGFSQEGDGQTPLYYDLPQYRPFWGEVEKLDVPFYLHPRNPLPQDSRIYDGHPWLLGPTWAFAQETAVHALRLMASGLFDEHPRLNIILGHLGEGLPYMMYRIDHRIAWVKAPPDYPAKRRFMDYFLENFHITTSGNFRTQTLIDAILEIGADRILFSTDWPFENIDHAADWFNATSIAEADRVKIGRTNARRLFKLDGR",1.3
3,"470 (protein, Dicamba decarboxylase variant) MAQGKVALEEHFAIPETLQDAAGFVPGDYWKELQHRLLDIQDTRLKLMDKHEIETMILSLAAPAVQAIPDRRKAIEIARRANDFLAEEVAKRPDRFLAFAALPMQDVDAATEELQRCVRDLGFVGAMVNGFSQEGDGQTPLYYDLPQYRPFWGEVEKLDVPFYLHPRNPLPQDSRIYDGHPWLLGPTWAFAQETAVHALRLMASGLFDEHPRLNIILGHLGEGLPYMMYRIDHRIAWVKAPPDYPAKRRFMDYFLENFHITTSGNFRTQTLIDAILEIGADRILFSTDWPFENIDHAADWFNATSIAEADRVKIGRTNARRLFKLDGR",1.8
4,"472 (protein, Dicamba decarboxylase variant) MAQGKVALEEHFAIPETLNDAAGFVPGDYWKELQHRLLDIQDQRLRLMDKHEIGTMILSLAAPAVQAIPDRRKAIEIARRANDFLAEEVAKRPDRFLAFAALPLQDPDAATEELQRCVNDLGFVGAMVNGFSQEGDGQTPLYYDLPQYRPFWKEVEKLDVPFYLHPRNPLPQDSRIYDGHPWLLGPTWAFAQETAVHALRLMASGLFDEHPGLNIILGHMGEGLPYMMYRIDHRIAWVKAPPDYPAKRRFMDYFLENFHITTSGNFRTQTLIDAILEIGADRILFSTDWPFENIDHAAAWFNATSIAEADRVKIGRTNARRLFKLDGR",1.4
